Results: patent US20230340071A1 (published 2023)

Key:
[1] = target: T1, human IL-2 receptor (IL-2Rβγc) on cells (human, UniProt P14784 27-551; P31785 23-369); assay: cell-based or functional assay
T1 sequence 1: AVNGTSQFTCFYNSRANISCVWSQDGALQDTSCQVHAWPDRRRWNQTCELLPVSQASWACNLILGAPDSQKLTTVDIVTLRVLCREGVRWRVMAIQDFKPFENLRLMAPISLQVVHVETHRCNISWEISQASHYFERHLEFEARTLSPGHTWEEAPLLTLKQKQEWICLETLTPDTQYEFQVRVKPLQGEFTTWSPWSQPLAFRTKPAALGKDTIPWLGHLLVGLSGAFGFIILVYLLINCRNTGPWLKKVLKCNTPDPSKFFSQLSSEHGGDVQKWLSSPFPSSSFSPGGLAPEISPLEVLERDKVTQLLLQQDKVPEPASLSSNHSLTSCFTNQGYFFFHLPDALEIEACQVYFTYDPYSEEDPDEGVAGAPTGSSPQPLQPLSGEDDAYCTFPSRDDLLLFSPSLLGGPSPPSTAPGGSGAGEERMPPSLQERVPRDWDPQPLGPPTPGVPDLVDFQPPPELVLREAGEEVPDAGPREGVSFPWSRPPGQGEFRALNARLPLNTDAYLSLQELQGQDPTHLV
T1 sequence 2: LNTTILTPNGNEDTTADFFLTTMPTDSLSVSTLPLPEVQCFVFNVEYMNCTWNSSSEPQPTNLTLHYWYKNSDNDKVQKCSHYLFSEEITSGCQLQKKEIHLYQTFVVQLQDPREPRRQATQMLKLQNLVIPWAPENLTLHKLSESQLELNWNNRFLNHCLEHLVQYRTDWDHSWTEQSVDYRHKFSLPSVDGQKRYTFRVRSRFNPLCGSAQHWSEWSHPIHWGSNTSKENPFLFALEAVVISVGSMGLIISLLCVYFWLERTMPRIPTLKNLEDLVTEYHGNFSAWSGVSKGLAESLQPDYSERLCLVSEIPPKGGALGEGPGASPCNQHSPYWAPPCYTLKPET

[2] = target: T2, hIL2RG-fc chimera (human, UniProt P31785 23-262); assay: BLI (Octet RED96e), hIL2RG-fc on anti-human IgG Fc sensors, 200 nM P4 + 200 nM hIL2RB-fc
T2 construct: also called hIL2G; hIL2 receptor gamma; not shown: Fc part of the bought chimera (captured on anti-human IgG Fc biosensors)
T2 sequence: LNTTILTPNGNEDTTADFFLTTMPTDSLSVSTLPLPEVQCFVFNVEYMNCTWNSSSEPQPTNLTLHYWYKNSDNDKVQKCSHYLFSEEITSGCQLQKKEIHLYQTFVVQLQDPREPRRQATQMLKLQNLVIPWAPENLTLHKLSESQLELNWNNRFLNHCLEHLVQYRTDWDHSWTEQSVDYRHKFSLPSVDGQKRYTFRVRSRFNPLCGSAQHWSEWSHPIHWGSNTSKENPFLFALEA
Protocol: (§1) All samples were prepared using HBS-EP+ buffer from GE Healthcare, which contains 10 mM HEPES, 150 mM NaCl, 3 mM EDTA and 0.05% v/v surfactant P20, pH 7.4. Data were acquired at 30° C. using an Octet RED96e system (ForteBio) and processed using the instrument's integrated software.

[3] = target: T3, hIL2RB-fc chimera (human, UniProt P14784 27-240); assay: BLI (Octet RED96e), hIL2RB-fc (Symansis) on anti-human IgG Fc sensors
T3 construct: also called hIL2 receptor beta; hIL-2Rβ; not shown: Fc part of the bought chimera (captured on anti-human IgG Fc biosensors)
T3 sequence: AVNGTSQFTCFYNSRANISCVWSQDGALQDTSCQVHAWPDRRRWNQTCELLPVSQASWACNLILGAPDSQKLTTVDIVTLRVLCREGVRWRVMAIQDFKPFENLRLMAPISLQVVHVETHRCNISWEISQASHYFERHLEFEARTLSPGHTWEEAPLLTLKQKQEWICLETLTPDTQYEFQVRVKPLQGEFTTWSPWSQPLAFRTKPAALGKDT
Protocol: For this purpose, sensors were soaked in samples containing 20 nM of hIL2RB-fc chimera (Symansis) for 300 sec. […] Finally, sensors were removed from the protein samples and dipped in buffer solutions to promote and measure dissociation (1500 sec). The buffer used to prepare all the samples and soak the sensors was HBS-EP+from GE Healthcare, which contains 10 mM HEPES, 150 mM NaCl, 3 mM EDTA and 0.05% v/v surfactant P20, pH 7.4. Data were acquired at 30° C. using an Octet RED96e system (ForteBio) and processed using the instrument's integrated software. Kinetics were fitted to a 1:1 binding model after subtracting a buffer signal baseline and the Kd values were calculated.

[4] = target: T4, mouse IL-2 beta receptor (mouse, UniProt P16297 27-240); assay: method not stated
T4 construct: also called mIL2RB; beta part of mIL2RBG
T4 sequence (looked up): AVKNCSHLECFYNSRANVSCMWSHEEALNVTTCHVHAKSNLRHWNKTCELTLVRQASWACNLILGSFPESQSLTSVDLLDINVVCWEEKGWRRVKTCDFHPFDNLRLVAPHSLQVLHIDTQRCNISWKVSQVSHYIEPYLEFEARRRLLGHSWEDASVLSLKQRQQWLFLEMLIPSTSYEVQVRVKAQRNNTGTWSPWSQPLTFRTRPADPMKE

[5] = target: T1, human IL-2 receptor (IL-2Rβγc) on cells; assay: cell-based or functional assay; remark: listed apart in the source
[6] = target: T5, Biotinylated hIL2RB (UniProt P14784 27-240, biotinylated (site not stated)); assay: BLI
T5 chain: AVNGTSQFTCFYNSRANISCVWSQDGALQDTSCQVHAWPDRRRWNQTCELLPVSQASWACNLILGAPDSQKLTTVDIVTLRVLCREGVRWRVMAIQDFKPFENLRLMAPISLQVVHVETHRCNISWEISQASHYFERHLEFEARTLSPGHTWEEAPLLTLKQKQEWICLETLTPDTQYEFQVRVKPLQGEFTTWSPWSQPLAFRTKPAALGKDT

[7] = target: T4, mouse IL-2 beta receptor; assay: BLI competition: mIL2RG on sensor, dilutions of P4 + 20 nM Neo-2/15; competitor Neo-2/15; read-out binding to mIL2RBG
Protocol: as §1, with “HBS-EP+buffer” for “HBS-EP+ buffer”, “software. IC50 values were estimated from response vs antagonist concentration plots.” for “software.”

[8] = target: T6, Biotinylated hIL2RG (human, UniProt P31785 23-262, limits assumed, biotinylated (site not stated)); assay: BLI (Octet RED96), biotinylated hIL2RG on streptavidin sensors, 200 nM protein + 200 nM hIL2RB
T6 construct: also called human common gamma receptor (hIL2RG); hIL-2Rγc
T6 sequence: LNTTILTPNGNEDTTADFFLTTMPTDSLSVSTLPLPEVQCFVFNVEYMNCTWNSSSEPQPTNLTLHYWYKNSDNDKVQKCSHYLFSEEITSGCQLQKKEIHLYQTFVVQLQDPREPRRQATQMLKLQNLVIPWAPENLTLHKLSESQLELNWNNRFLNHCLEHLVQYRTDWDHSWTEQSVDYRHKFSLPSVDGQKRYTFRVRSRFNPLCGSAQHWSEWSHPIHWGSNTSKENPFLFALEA
Protocol: Biotinylated hIL2RG molecules were immobilized to Streptavidin sensors (SA, ForteBio) at 2 μg/mL in binding buffer (10 mM HEPES, pH 7.4, 150 mM NaCl, 3 mM EDTA, 0.05% surfactant P20, 0.5% non-fat dry milk). After baseline measurement in the binding buffer alone, the binding kinetics were monitored by dipping the biosensors in wells containing 200 nM of protein and 200 nM of hIL2RB for 300 sec. Data were collected in an Octet RED96 (ForteBio) and processed using the instrument's integrated software.

[9] = target: T3, hIL2RB-fc chimera; assay: BLI competition: hIL2RG-fc on sensor, dilutions of P4 + 20 nM Neo-2/15 + 50 nM hIL2RB-fc; competitor Neo-2/15; read-out binding to hIL2RBG
Protocol: as §1, with “HBS-EP+buffer” for “HBS-EP+ buffer”, “software. IC50 values were estimated from response vs antagonist concentration plots.” for “software.”

[10] = target: T7, hIL-2RBG (biotinylated hIL2RG on the sensor with hIL2RB in solution) (UniProt P14784 27-240; P31785 23-262, biotinylated (site not stated)); assay: BLI competition, inhibition of hIL-2 binding
T7 chain 1: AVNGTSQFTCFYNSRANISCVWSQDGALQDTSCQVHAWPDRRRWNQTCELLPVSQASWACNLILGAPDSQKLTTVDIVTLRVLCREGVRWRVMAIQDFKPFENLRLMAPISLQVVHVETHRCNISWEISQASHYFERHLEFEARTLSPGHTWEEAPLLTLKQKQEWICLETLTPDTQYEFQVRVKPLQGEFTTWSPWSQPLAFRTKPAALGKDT
T7 chain 2: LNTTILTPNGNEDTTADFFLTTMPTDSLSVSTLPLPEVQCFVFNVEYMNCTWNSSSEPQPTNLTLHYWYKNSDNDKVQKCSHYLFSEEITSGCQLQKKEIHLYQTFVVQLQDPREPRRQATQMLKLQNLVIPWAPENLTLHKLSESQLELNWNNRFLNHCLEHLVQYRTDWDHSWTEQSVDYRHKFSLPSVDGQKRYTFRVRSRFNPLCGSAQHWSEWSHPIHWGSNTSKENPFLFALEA

B1: Protein 4 (P4) (designed binder)
chain: PKKKIQLYAEHALYDAEMILKIVKTNSPPAEEELEDYAFNFELILEEIARLFESGDQKDEAEKAKRMKEWMKRIKTTASEDEQEEMANRIRKILEEWIRS
notes: P2 with H8Y and K33E; N-terminal 6xHis tag and thrombin site in the expression vector; also called S4
Signaling Inhibition IC50 (1 nM hIL-2, pSTAT5, CD4+ T cells) [1]: 1.46 nM | Signaling Inhibition IC50 (1 nM hIL-2, pSTAT5, CD8+ T cells) [1]: 0.3 nM | Signaling Inhibition IC50 (1 nM hIL-2, pSTAT5, all T cells) [1]: 0.49 nM | binding result [2]: no binding (tested: 200 nM) | Kd [3]: 0.06 nM | Kd [4]: 70.6 nM | Binding Inhibition IC50 (inhibition of hIL-2 pSTAT5 signaling, human pan T cells, 0.1 nM hIL2) [5]: 0.1 nM | Binding Inhibition IC50 (inhibition of hIL-2 pSTAT5 signaling, human pan T cells, 1 nM hIL2) [5]: 0.45 nM | Binding Inhibition IC50 (inhibition of hIL-2 pSTAT5 signaling, human pan T cells, 10 nM hIL2) [5]: 3.3 nM | Kd [6]: < 1 nM | IC50 [7]: 67.6 nM | binding result [8]: no binding (tested: 200 nM) | IC50 [9]: 0.9 nM | IC50 [10]: 88 nM
